Target: conventional myosin (Caenorhabditis elegans) (UniProt P02566)
Test: ELISA

Sequence of UniProt P02566 (P02566 whole entry): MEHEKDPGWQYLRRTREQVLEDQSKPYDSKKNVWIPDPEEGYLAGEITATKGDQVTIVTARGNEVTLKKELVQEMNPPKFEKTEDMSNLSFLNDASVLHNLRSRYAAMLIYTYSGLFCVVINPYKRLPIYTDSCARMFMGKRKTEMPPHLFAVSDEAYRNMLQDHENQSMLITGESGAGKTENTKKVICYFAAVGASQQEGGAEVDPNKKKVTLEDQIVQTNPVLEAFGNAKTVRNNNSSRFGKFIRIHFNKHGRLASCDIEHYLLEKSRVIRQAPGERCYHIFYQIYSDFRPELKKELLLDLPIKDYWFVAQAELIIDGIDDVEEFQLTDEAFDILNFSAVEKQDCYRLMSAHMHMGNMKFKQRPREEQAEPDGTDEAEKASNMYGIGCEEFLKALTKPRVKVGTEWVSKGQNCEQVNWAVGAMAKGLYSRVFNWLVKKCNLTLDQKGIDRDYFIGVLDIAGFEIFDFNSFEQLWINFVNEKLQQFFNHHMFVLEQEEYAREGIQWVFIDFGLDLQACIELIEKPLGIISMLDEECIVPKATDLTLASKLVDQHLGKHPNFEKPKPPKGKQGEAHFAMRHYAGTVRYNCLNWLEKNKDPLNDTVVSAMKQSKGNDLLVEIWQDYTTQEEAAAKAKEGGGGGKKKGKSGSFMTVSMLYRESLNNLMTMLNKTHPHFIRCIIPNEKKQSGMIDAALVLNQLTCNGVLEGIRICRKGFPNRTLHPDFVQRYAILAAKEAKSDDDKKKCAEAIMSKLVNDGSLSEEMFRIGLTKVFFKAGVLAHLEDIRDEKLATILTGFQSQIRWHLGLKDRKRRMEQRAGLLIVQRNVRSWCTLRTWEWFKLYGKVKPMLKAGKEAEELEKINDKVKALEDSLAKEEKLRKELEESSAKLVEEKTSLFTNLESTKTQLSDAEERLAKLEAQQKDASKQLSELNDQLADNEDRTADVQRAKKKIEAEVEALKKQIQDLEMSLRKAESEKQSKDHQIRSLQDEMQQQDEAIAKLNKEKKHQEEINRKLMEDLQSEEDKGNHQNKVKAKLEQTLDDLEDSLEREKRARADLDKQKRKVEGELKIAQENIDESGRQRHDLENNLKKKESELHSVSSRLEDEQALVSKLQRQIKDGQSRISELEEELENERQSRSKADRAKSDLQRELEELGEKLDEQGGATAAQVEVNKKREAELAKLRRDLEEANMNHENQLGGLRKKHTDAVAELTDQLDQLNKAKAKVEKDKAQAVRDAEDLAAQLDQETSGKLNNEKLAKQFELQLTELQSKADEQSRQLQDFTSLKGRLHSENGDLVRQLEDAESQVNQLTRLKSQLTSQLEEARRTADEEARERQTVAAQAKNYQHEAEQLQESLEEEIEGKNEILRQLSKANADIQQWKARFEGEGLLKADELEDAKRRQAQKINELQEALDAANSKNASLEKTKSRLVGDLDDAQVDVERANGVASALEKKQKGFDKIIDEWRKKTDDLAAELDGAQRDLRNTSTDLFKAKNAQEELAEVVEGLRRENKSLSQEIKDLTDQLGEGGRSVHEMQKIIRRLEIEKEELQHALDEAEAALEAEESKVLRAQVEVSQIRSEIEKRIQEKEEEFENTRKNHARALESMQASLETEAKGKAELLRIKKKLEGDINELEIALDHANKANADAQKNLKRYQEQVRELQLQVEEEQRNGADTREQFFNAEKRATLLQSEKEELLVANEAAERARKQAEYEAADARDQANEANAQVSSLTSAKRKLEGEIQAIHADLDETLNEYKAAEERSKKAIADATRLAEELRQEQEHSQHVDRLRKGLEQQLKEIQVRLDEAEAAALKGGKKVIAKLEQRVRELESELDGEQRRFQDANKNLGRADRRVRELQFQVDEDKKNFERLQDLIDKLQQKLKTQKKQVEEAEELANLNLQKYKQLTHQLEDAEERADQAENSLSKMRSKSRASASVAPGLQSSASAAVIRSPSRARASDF

- Kd: 1.5 nM
Substance: TTN-1 fragment 11/12 Ig38-Ig39-Ig40 (from UniProt G4SLH0)

From article PMC2908218
